Assay results reported in the DeepSol protein solubility set.

Test: soluble on expression in E. coli; label from the status in PepcDB or PDB records

Sequence | soluble on expression in E. coli
MGSDKIHHHHHHMWYMRWEGVSDGLKVTAGSVIQRDDLVQYTTTDDATSSGGVLRVPIACSSAGAVGNADDGTALILVTPVNGLPSSGVADTLTGGFDTEELETWRARVIERYYWTPQGGADGDYVVWAKEVPGITRAWTYRHLMGTGTVGVMIASSDLINPIPEESTETAARQHIGPLAPVAGSDLYVFRPVAHTVDFHIRVTPDTPEIRAAITAELRSFLLRDGYPQGELKVSRISEAISGANGEYSHQLLAPVDNISIAKNELAVLGTISWT | not soluble
MGSDKIHHHHHHMYFITLSRQLGTKGTEIAKLVAKELHYDFYDTEAIEKKAGEMGFLDDIRKVDDKPPSPLKQLFSWQTETCLEHLYTVIYDLSRYGNAVVLGRGGNMLFRPIPHALHVRVIASHEKRVQNLLEKVYRRETAVMIMEKSDQERSSFIRFAFNRDWGDPELYDMVLNMDNMTVRSAADTILRAARLRESQCPSRDGMSPLNLMELTAKVKAALANAGFPSNYASPFVNAPGKVRLTGIVHDPREKLAAEMTALKVEGVESVENRIQIAGS | not soluble
MGSDKIHHHHHHMYKKSVDLSLESVLVEIDENKKLMPSRNATVQPVALMRLGLFLPSLKRKGKDTENISIDASSELQSLELARAEGYTDIRITGPRLSMETDFKVWVGIILAFSKYGLNSSTIELPFSEFATFCGFSSKDKDKGLRTRLADSLIRLRSTTIKLASEKDRNGVVSGLLSRGKWDEKDDIMELTADESLWELYQFDRQVLLQMFIIRQLANKGTAQALYTFIESLPERPIPLSFARIKRRLMLTSPNNQQNRVINKAIDELKAVGYLDGDVVKKDGEWHLIITRRTPRPDIKAMSEALKDGE | not soluble
MGSDKIHHHHHHMYNLGKGVQECTETSLLTALGGMERRNLSELDTTLTSDNLPVVSHDFNTWRISTLPDRLIRELHSADVKNIPVIIREVSNGEITESYTVTNDIIPFLEPLLDKVFDVNPGATFFLDGRDFEAHIITAWLSRRPKYRQRVVLLFYTFEYSSGEAFFDAVKQVSPEPDWRETVALMPVIFPQELPRLAKLIDLSDIAVEDLYEGGKIWIDSMLRQPMRVVAVHIVMARVKPEQLGLCDKPEIVRAFNADYAAVRLAYYVKDNPEVRKMRPHLKLATATRCYDFSAQLENGEKAEFSINIRTGRPMPRETDERKYIRRGYGIPGNAAAIADWVISDRSEDEMSFWEWRNKGVPRRVDHHCPHLDVIEQDGKSVP | not soluble
MGSDKIHHHHHHMYRSRNRPKRGGENEVKGPNSALTQFLREEGISAENIKQKWYQRQSKKQEDATDEKKGKAEDDSFTAEISRVVEDEEIDEIGTGSGTETERAQVSYDARMKLVPADSDEEEYETSHISDTPVSLSSANDRESLTKKRQNTAKIIQNRRRKRKRAADLLDRRVNKVSSLQSLCITKISENISKWQKEADESSKLVFNKLRDVLGGVSTANLNNLAKALSKNRALNDHTLQLFLKTDLKRLTFSDCSKISFDGYKTLAIFSPHLTELSLQMCGQLNHESLLYIAEKLPNLKSLNLDGPFLINEDTWEKFFVIMKGRLEEFHISNTHRFTDKSLSNLLINCGSTLVSLGLSRLDSISNYALLPQYLVNDEFHSLCIEYPFNEEDVNDEIIINLLGQIGRTLRKLVLNGCIDLTDSMIINGLTAFIPEKCPLEVLSLEESDQITTDSLSYFFSKVELNNLIECSFRRCLQLGDMAIIELLLNGARDSLRSLNLNSLKELTKEAFVALACPNLTYLDLGFVRCVDDSVIQMLGEQNPNLTVIDVFGDNLVTEKATMRPGLTLIGRQSDSI | not soluble
MGSDKIHHHHHHMYRTAIEELHRWKAKRNKKPLIIRGARQVGKTWLMKEFGRVAFAKTVYISLDNNRRMKELFSADLDVERIVTGLELYSGQKIDPANTLLIFDEVQEVPTALTSLKYFNENAPQYQIISAGSLLGVALHQGTSFPVGKVEFLDLYPLSFTEFLNAMDKGRYVELLQKGDFDMIATFKQTYVDMLKYYYYVGGMPEVVQSFSETKDFGEVREIQQRILDAYEQDFSKHAPHDVVPRIRMLWNSIPAQLTKENKKFIYGLIKEGARAKEYEQSMLWLTDCGLVHKVHRVNAPSLPLKAYEDLKAFKLFLVDIGLLSCMVRLNQGTLLDGNELFKEFKGALTEQYVLQQLRTLKELEAYYWTNDRGSAEIDFVVDDGHKVIPIEVKAETNLKAKSLKMYQEKFRPELSIRASMADYRRENRLLNLPLYMVEMMGLLLKEAE | not soluble
MGSDKIHHHHHHMYTLNILKDSTAVMYEKMTFPAFQYVLQEINSKESLIAIAASYQEEPVGLVLAEIRTYNQSAEVLSLFVEPSHRCAGIGTNLLNRLETELTYRRCKKVELVYMTGKSTTPALENLLHKCGWTSPQPRMLVCKGEMEKGIQAPWLKQYSQLPAAYTIFPWREITTQERQAIERQQATQPWIPEDLIPFKYDKQIEPLNSLGLRYQGQVVGWLISHRIFPDTIRYTCAFCRPDIQKKGRMITLFYEAAKLQLNAKIPHFIWTTPMNHQSMVAFVKYRCLPYLTSIQETRIISKLLLG | not soluble
MGSDKIHHHHHHMYVLHICHSYYPPFLDCARQYAALFKDSPYKVVTVYLTGKPDPEVERGSASDEVVFLGYSSKQVKGLKLGAIAKIRQLVKSRNFAFCIAHRAKPTYVALLATGLPVVSVHHNYNDYGRFTRRILVNFYRKRILMLCVSNSVRDEMRQHLKHWPAEQIQTLYNRIDVDAVRQSLLPRQEARRLLELEDDTYVIANVGRLHRDKDQATLLRGFAQALPELPANTLLLILGKGPLEQELKALASELGIAGNVRFAGQVPEARRYFRAFDLFVLTSDHEPFGMVLLEAMAAELPIICSDSGGGAEVVNGYGDLFSLGNPHHLSSLLIARSRLPQAANSSADILHEKFSDAAARKHFFMLTFIKDLLFI | not soluble
MGSDKIHHHHHHMYYLSFSISSNCGLSAAAEHLQNKIVTLNVINSTDFNTVIAFTLARDIDAMRNDFAKDFKTVYIARGKKAAFINGTKISHGIVPAMISEQIIPLYPIFAENGSEWFNAIVLEKEHIDNFVALIEKKNNIETLDYERIRNGDSMFSIIKNANRGIFTLELTETERRIVNSSLRQGFFSWPRSYDLTSISREFGLTKPTILYHIRNAERKVMEALFGS | not soluble
MGSDKIHHHHHHQGPQCNHAQLPFQQMTPVPYDSTPYSPQDTMPEQCSNPEVEAYIADWEAGKIDFTTIKANDSIAADQRFCKTLDDDGNISEVKDCDRTKSPVGYIWKELSDSPVVIGITDGGKSDHAPHFHGQPECYYVVNGEGQTLADNQFKKLGTGQYFYIPGATIHNTPIMSEKGLGVIYWYPNNAHFDGFKYYWRKDVKNLRVAEEAFDRVDAIRKRDLNLGPYGTNEAFFKK | not soluble
MGSDKIHHHHHHQTPSPLGEWQYSAGVPLDKLFNPNPQTWQISVGAAATLQPRYDGSNQYRPMAGPTFDARYRDLWFVSTGEGIGVNVLRGPNWRATLSAGYDLGRREADDRGHLTGIGNINPAAVIKLSADYVISHAFPLVLRADVRRSVGGANGWVADLAAYMPLPGSSETFYWFAGPTVTFADSRYMNSWFGVNDAQAARSGHPRYAPSAGVKSFGGGMTLVWFVTKHWFVTADGAIEQLVGSAARSPLTQRSTNAVVDVSINYQF | not soluble
MGSDKIHHHHHHQVSGDTVKIGFITDLSGLYADIDGQGGVEAIKMAIEDAGGKVLGKPIELVTADHQNKADIAASKAREWMDQQGLDVLIGGTNSGTALAMNKVAAEKKRVYINNGAGTARLTNEECSPYTVHYAYDTVALAKGTGSAVVKQGGKSWFFLTADYAFGHSLESDTAAVVKANGGTVLGSVRHPLSASDFSSFLLQAQASKAQILGLANAGGDTINSIKAAKEFGITKTMKIAGLLMFINDIHSLGLKNTEGLLMTDSWYWDMNDDTRKFANRYFSKMKKMPSSLQAADYSAVSTYLKAVAAAKTDDPDKVMAELKKTKINDFYTKGYIRQDGRGIHDMYLMQVKSPAESKKPWDYLKIVATIPGDQAFTTVAESKCSMMKK | not soluble
MGSDKIHHHHHHTPLPPVKQPHPATSQQHQEPVRGVWLATVSRLDWPPVTSVNTNSPAIRITQQQEALKGKLDKLKSLGINTVFFQIKPDGTALWPSKILPWSDMMTGHIGEDPGYDPLQFMLDEAHKRGMKVHAWFNPYRVSVNTKSGTVAELNRTLSQNPASVFVLHRDWIRTAGDRFVLDPGIPEARNWITSIVAEVVARYAIDGVQFDDYFYAESPGSVLNDGETFKKYGQGFGSKADWRRHNTQQLIEQVSRTIKQLKPEVEFGVSPAGVWRNRSHDAAGSDTRGAAAYDEAYADTRLWVQQGLLDYIAPQLYWPFARDAARYDVLAKWWADVVKPTSTRLYIGVALYKVGEPSKNEPDWMISGGVPELKKQLDLNESTPHIDGTILFRENYLNQPQTQEAVNYLRNRWNPI | not soluble
MGSDKIHHHHHHVATYNERLFDGKSFRSKLHYARYLWVNSWIKRWELPSYSMLELGCYDGKTIDFLSNKPATYAGYDANWEGGLDIAKTKWSMHPDYSFHTCEKPADFSADDSMYEVSVCLETLEHIPAADLEAYIVQLSKKTKQYCLVSVPNEKGPVLFFKHIIKSITQEKAQTEAYTLKEFLYGSIGRLDKVARRDCGHKGFDYDALAVLLKKYFTILKTEAIPYPAIPHALGFNVGFILKKN | not soluble
MGSDKIHHHHHHVDDNALPVEETFKDIDLANNLKDCGKPLLLSDIVKDVEYVKLETQDNILVGDIKQLKRTEKFVFIYSRNQRHVMMFDTSGKFIRKIGHVGQGPGEIANIHCFTVSDSLVFIYPFSRNGSLTVYDMRDNSFVKEFSLKWPVFFSWTIDVMGDCLVYYPGTVYLPDNSKTFISACVANGKGETLMEQIPYLSSGDKEIVQLSSDPSWLYRGRSNVYSFINDTIYGITCDSIFPRYHLSLGKYKLPSGRYDPTHDYGWGDFVLMQSVYETKEFLFLELGTLL | not soluble
MGSDKIHHHHHHVDKLLYVAMSGAKQNMNSLAVRANNLANANTDGFKSDLEQARSMQAFGEGLPTRVFSMTENPSANFAAGPIKTTGRDLDIAVKGDGWIAVQAVDGGEAYTRSGSLSFDTSGLLRNDRGNPVMGDAGPIVLPLPIEKVEIAQDGTISVRPLGSTAEVIEEVGRIKLVNPGNQNLMRGEDGLFRQLSGVNAPADPNVAVESGAIEGSNVNAVDEMVSLIDLQRQFEMQVKMMKTAEEMDQASSSLMRIS | not soluble
MGSDKIHHHHHHVDTGNRPSILRMPAQEDFVRFKPGFGTRFLLTVDTEEEFDWSKPLDRTSHGLHHVPRLAKFQQFCEGVGVVPVYLVDFPVASDPRAADILRDAVHAGKAEIGVQLHPWVSPPHDEDVNVHNSFAGNLAPELERAKFRKLRDTIEQAFGVGPLIYRAGRYGVGPATASILSDCAIAIDTSVRSRFDYSSAGGPNFREYPLRPWWIDKRNGLMEMPLTTVFSGLLRQQGQTIYPALWRVPRLRGALARIGMLERIPLTPEGVTLDEAIKGIDMALDDGLEMLVFSFHSPSLCPGHTPYVRDESDLDLFYAWWRGVLTYMQQRNVKPTCVREIMEAAEI | not soluble
MGSDKIHHHHHHVHLTYENTNEEIIAVKRKPRHQPPHLHNAMEIVCVTKGTLELGVGQELYHMETGDIGVVFPDVIHHYQVFSSEVNEAVFINAPQMIFGRFENVLRNNAPQYPVVKSDVIPDEVYRAVESIIDTGQNDIWVVQAYLQIILARCIPMMKLVEKSKIGSDDIIYRTVSYISANFNKSISLDGMAHDLGVSKFSLSRLFSKTFHSSFNQYVNEARLGYACQRIETTDDTLTEISMDSGFGSLRTFNRVFKEKYRLTPSEYRNKLQI | not soluble
MGSDKIHHHHHHVKFFVIGDVTVDHLYHLDRLPAPGEEVAPTRATMKPGGAGGTISVTLARLGHSVTLAARVGDDPFAEYALASVRESGVLQAAIQIDPEHLTSTITVMQTPDGQRAMISDGAANRQLDPAKLKKKDIEGADALIVSAYSLTEGPQREYTLKAIETAKKAKKPVPVFIDLGTGAVNKVGTDLIENVIGADYLTLNQHELLALTDTTSISAALAQLGDAGARRVIVKVGRMGSIVWTPTETELVDPIKPEGRVVDSTGAGDTFTAAFAHAVLTGHSLPQAARIGNAAGALAATRVGAQARPITLADLEAALAR | not soluble
